From article PMC6163455 (Biomolecules, 2018)

System: CHO-K1 cells
Assay: cell fractionation and anti-β-lactamase immunoblotting
Assay type: cell-based, Chinese hamster
Details: 8 µM, 1.5 h at 37 °C, digitonin cytosol extraction, 4 µg aliquots, anti-β-lactamase antibody, Figure S1
Procedure: Supplementary Information
Supplementary Figures: β-Lactamase Tools for Establishing Cell Internalization and Cytosolic
Delivery of Cell Penetrating Peptides
Figure S1. Verification of cell penetrating peptides (CPP)-mediated β-lactamase internalization by immunoblotting. MW: molecular weight.
Aliquots (4 µg) of cytosolic and membrane soluble CHO-K1 cell fractions from β-lactamase assays were separated by sodium dodecyl sulfate–polyacrylamide gel electrophoresis (SDS-PAGE) through a 4-12% (w/v) polyacrylamide Bis-Tris gel, transferred to polyvinylidene difluoride (PVDF) membrane, and immunoblotted. β-lactamase conjugated (e.g., 1746_SpyT/SpyC_BLA) or fused (e.g., 1746_BLA recombinant) to 1746c27 and 1746 Phylomer cell penetrating peptides (CPPs) was detected in the cytosolic fraction to varying extents, while TAT-conjugated β-lactamase was predominantly detected in the membrane fraction of cell lysates. […]
delivered into the cytosol by the 1746 CPP. Internalization of unconjugated SpyC_BLA protein was not detected, either on its own (SpyC_BLA (no CPP)) or in the presence of 1746c27 peptide (1746c27, SpyC_BLA), illustrating there is no bystander uptake effect. […]
Aliquots of extracted fractions (4 µg) were separated through a 4–12% Bis-Tris gel (Invitrogen, Carlsbad, CA, USA). Protein expression in the fractions was detected using monoclonal anti-β- […]

B1: 1746_BLA: recombinant fusion of phylomer CPP 1746 with β-lactamase (protein)
chain: MASPLKPKKPKTQEKKKKQPPKPKKPKTQEKKKKQPPKPKRASSGSHHHHHHGATLEVLFQGPGGSHPETLVKVKDAEDQLGARVGYIELDLNSGKILESFRPEERFPMMSTFKVLLCGAVLSRIDAGQEQLGRRIHYSQNDLVEYSPVTEKHLTDGMTVRELCSAAITMSDNTAANLLLTTIGGPKELTAFLHNMGDHVTRLDRWEPELNEAIPNDERDTTTPAAMATTLRKLLTGELLTLASRQQLIDWMEADKVAGPLLRSALPAGWFIADKSGAGERGSRGIIAALGPDGKPSRIVVIYTTGSQATMDERNRQIAEIGASLIKHWQLGSASGTTGATSG
β-lactamase detected in cytosolic and membrane cell fractions (immunoblot): very strong signal in the cytosolic fractions
